Reference: the supplement of paper PMC7877785
± gives the uncertainty stated by the source.

Test: self-splicing fitness, log relative to wild type (ln ratio); higher = more splicing; Tetrahymena group I intron in knt gene, E. coli kanamycin selection, DiMSum; sequences stand for … in CUCUCU…GGAGGGAAAAGUUAUCAGGCAUGCACCUGGUAGCUAGUCUUUAAACCAAUAGAUUGCAUCGGUUUAAAAGGCAAGACCGUCAAAUUGCGGGAAAGGGGUCAACAGCCGUUCAGUACCAAGUCUCAGGGGAAACUUUGAGAUGGCCUUGCAAAGGGUAUGGUAAUAAGCUGACGGACAUGGUCCUAACCACGCAGCCAAGUCCUAAGUCAACAGAUCUUCUGUUGAUAUGGAUGCAGUUCACAGACUAAAUGUCGGUCGGGGAAGAUGUAUUCUUCUCAUAAGAUAUAGUCGGACCUCUCCUUAAUGGGAGCUAGCGGAUGAAGUGAUGCAACACUGGAGCCGCUGGGAACUAAUUUGUAUGCGAAAGUAUAUUGAUUAGUUUUGGAGUACUCGUGGUCG
How it was run: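 A randomised library covering all eight P1ex-region intron nucleotides was built with the intron in the knt kanamycin-resistance gene on pET-22b(+) and held in E. coli BL21(DE3). Cells were grown overnight at 37°C or 30°C on LB agar, with or without 25 μg/mL kanamycin, plus 100 μg/mL carbenicillin, 50 μM IPTG and 0.2% rhamnose, and pooled colonies were amplicon-sequenced on an Illumina HiSeq 2500. DiMSum fitness is the error-weighted combination of wild-type-normalised replicate fold changes, kanamycin versus none.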

Sequence	self-splicing fitness (ln) (37 °C)	self-splicing fitness (ln) (30 °C)
GAUAAGCAAUAUUACGGUCC	-3.48 ± 0.46	
CCCAAGCAAUAUUACGCCUA	-2.8 ± 0.31	-2.65 ± 0.26
GCGUAGCAAUAUUACGAGAU	-2.25 ± 0.17	-2.22 ± 0.12
GGCCAGCAAUAUUACGAGCA	-0.145 ± 0.084	-0.969 ± 0.077
GUUCAGCAAUAUUACGGGCC	-2.25 ± 0.2	-3.61 ± 0.2
CCUAAGCAAUAUUACGGUGA	-2.28 ± 0.16	-3.89 ± 0.25
CUGUAGCAAUAUUACGCCUC		-2.16 ± 0.4
UAAGAGCAAUAUUACGAAGG	-1.81 ± 0.2	-4.21 ± 0.34
UAGUAGCAAUAUUACGCCGA	-0.922 ± 0.2	-1.81 ± 0.23
GCAAAGCAAUAUUACGAUGA	0.353 ± 0.096	-0.578 ± 0.076
AACUAGCAAUAUUACGCCGU	-0.221 ± 0.14	-1.62 ± 0.11
GUUAAGCAAUAUUACGCGUC	-1.96 ± 0.2	-3.23 ± 0.26
CCUAAGCAAUAUUACGAAGU	-1.21 ± 0.13	-2.62 ± 0.13
CCGAAGCAAUAUUACGAAAG	-0.965 ± 0.092	-1.21 ± 0.073
CACUAGCAAUAUUACGUUAG	-2.92 ± 0.17	-3.34 ± 0.14
ACUGAGCAAUAUUACGGAUA	-1.77 ± 0.26	-3.08 ± 0.28
GACUAGCAAUAUUACGACUA	-0.443 ± 0.14	-1.04 ± 0.16
ACGUAGCAAUAUUACGCAGC	-2.71 ± 0.25	-3.26 ± 0.26
GGAUAGCAAUAUUACGAGCU	-0.744 ± 0.14	-0.723 ± 0.19
GCACAGCAAUAUUACGGUGA	-0.455 ± 0.079	-0.308 ± 0.07
UGAUAGCAAUAUUACGCGUA	-0.96 ± 0.13	-1.74 ± 0.13
AACCAGCAAUAUUACGAGGG	-2.1 ± 0.11	-3.27 ± 0.11
UUUAAGCAAUAUUACGAUUG	-1.12 ± 0.16	-1.36 ± 0.15
UUAAAGCAAUAUUACGCCUU	-1.28 ± 0.19	-1.96 ± 0.18
AUUUAGCAAUAUUACGGGAU	-0.217 ± 0.14	-1.42 ± 0.11
AGACAGCAAUAUUACGACGG	-1.86 ± 0.13	-2.19 ± 0.14

Sequence	self-splicing fitness (ln) (37 °C)	self-splicing fitness (ln) (30 °C)
GUGUAGCAAUAUUACGUUAC	-2.56 ± 0.35	
AGCAAGCAAUAUUACGAUCG	-0.163 ± 0.12	0.481 ± 0.09
CACUAGCAAUAUUACGCAAA	-2.46 ± 0.27	-2.95 ± 0.21
CGCCAGCAAUAUUACGUACU	-2.02 ± 0.2	-2.58 ± 0.16
UGCGAGCAAUAUUACGACGA	-0.458 ± 0.13	-1.13 ± 0.13
CCAGAGCAAUAUUACGUCUA	-2.23 ± 0.24	-2.37 ± 0.19
CGUGAGCAAUAUUACGUUAA	-3.55 ± 0.3	-4 ± 0.31
AAUAAGCAAUAUUACGUUCG	-0.605 ± 0.095	-1.5 ± 0.08
UUGCAGCAAUAUUACGGGGA	-0.636 ± 0.12	-1.37 ± 0.13
ACCAAGCAAUAUUACGUGCC	-0.801 ± 0.13	-0.735 ± 0.082
GCAAAGCAAUAUUACGAAUU	-0.942 ± 0.11	-2.67 ± 0.15
GCUAAGCAAUAUUACGUUAG	-2.2 ± 0.28	-2.7 ± 0.28
GCGUAGCAAUAUUACGGUGG	-3.39 ± 0.39	-4.1 ± 0.31
GACCAGCAAUAUUACGUUUU	-0.174 ± 0.052	-0.363 ± 0.036
UGCAAGCAAUAUUACGCAGA	-1.75 ± 0.15	-1.92 ± 0.16
AAAUAGCAAUAUUACGAGAA	-0.893 ± 0.23	
AGCUAGCAAUAUUACGUCCC	0.355 ± 0.22	-1.33 ± 0.21
CACAAGCAAUAUUACGAAAC	-1.91 ± 0.25	
UGAUAGCAAUAUUACGAUCU	0.105 ± 0.16	0.499 ± 0.12
CUGCAGCAAUAUUACGCCAC	-2.82 ± 0.44	-2.82 ± 0.26
CUGGAGCAAUAUUACGGCUG	-0.00856 ± 0.18	-1.48 ± 0.15
UCGCAGCAAUAUUACGGCUG	-2.45 ± 0.32	-3.46 ± 0.24
CAUGAGCAAUAUUACGACGA	-1.85 ± 0.21	-2.3 ± 0.3
CCCAAGCAAUAUUACGCCAG	-3.07 ± 0.33	-2.9 ± 0.19
UGACAGCAAUAUUACGUGGU	-2.22 ± 0.12	-3.23 ± 0.15
UUUUAGCAAUAUUACGUUAG	-2.02 ± 0.21	-1.37 ± 0.13

Sequence	self-splicing fitness (ln) (37 °C)	self-splicing fitness (ln) (30 °C)
UAAGAGCAAUAUUACGGUAA	-3.19 ± 0.28	-2.55 ± 0.21
UGUAAGCAAUAUUACGUGCG	-0.337 ± 0.1	-0.869 ± 0.075
AACUAGCAAUAUUACGGUCU	0.465 ± 0.07	-0.472 ± 0.055
CCAAAGCAAUAUUACGAUAC		-2.15 ± 0.27
UCUCAGCAAUAUUACGAGCA	0.222 ± 0.12	-0.507 ± 0.081
CGAAAGCAAUAUUACGCGUG	0.12 ± 0.079	-1.16 ± 0.068
GCUUAGCAAUAUUACGAACC	-0.336 ± 0.27	-0.273 ± 0.23
AGGUAGCAAUAUUACGAUCA	-0.121 ± 0.033	-0.205 ± 0.014
GUCAAGCAAUAUUACGAAAC	0.108 ± 0.3	-1.37 ± 0.27
ACCAAGCAAUAUUACGUAGG	-2.03 ± 0.096	-2.55 ± 0.068
CCAUAGCAAUAUUACGGUCU	-2.53 ± 0.28	-3.96 ± 0.33
CGCGAGCAAUAUUACGUAUG	-1.2 ± 0.19	-1.62 ± 0.13
UAUCAGCAAUAUUACGCCAA	-0.351 ± 0.2	-1.34 ± 0.19
CUAGAGCAAUAUUACGCAUG	0.532 ± 0.1	-0.244 ± 0.092
CUAAAGCAAUAUUACGGAGU	-3.19 ± 0.23	-4.03 ± 0.15
CCGAAGCAAUAUUACGUCAA	-2.35 ± 0.33	-3.82 ± 0.38
CCCUAGCAAUAUUACGAAAA	-3.22 ± 0.27	-2.83 ± 0.2
GCUCAGCAAUAUUACGGCUC	0.408 ± 0.17	-0.525 ± 0.13
AUCAAGCAAUAUUACGAUUC	-1.25 ± 0.16	-2.14 ± 0.12
UUACAGCAAUAUUACGCUUU	-2.08 ± 0.18	-3.28 ± 0.25
AGAUAGCAAUAUUACGGCCG	-0.128 ± 0.23	-0.583 ± 0.13
AUGGAGCAAUAUUACGUUAG	-2.49 ± 0.29	-3.17 ± 0.32
GGGUAGCAAUAUUACGUUGA	-0.495 ± 0.11	-2.44 ± 0.16
CAGCAGCAAUAUUACGUGCG	-0.378 ± 0.066	-1 ± 0.05
UCGUAGCAAUAUUACGAUGA	-0.601 ± 0.13	-0.769 ± 0.12
